Bridge positions count the residues as written; N and C are the ends. Square brackets hold non-standard residues; d marks the D form. Ends that are not written are not given here.
Key:
human collagen type I = molecular target: T1, human collagen type I (Homo sapiens, UniProt P02452+P08123); assay: Dried collagen assay (DCA): percent binding to dried human collagen; details: 5 μM peptide in PBS, pH 7.4, 2 hours at room temperature
T1 construct: Acid soluble human collagen extracted from placenta; purchased Sigma C7774 (lot #083K375); host or cells: human placenta
Procedure: Acid soluble human collagen extracted from placenta (Sigma, cat #C7774, lot #083K375) is dissolved in 15 mM HCl (3.5 mg/ml) by vortexing and gently shaking for 3-4 hours at 4° C. The acid soluble collagen is […] against PBS, pH 7.4 (three buffer exchanges are used). The […] protein concentration is determined by the BCA method (Pierce, Cat #23225) using bovine collagen (Vitrogen, cat #FXP-019) as a reference standard. Percent gelation (fibril formation) of the collagen is determined by incubating 10 μM collagen (3.3 mg/ml) at 37° C. for 6 hours. A typical percent gelation is 60%.
(§1) An additional 90 μL is reserved in a HPLC glass vial as a measure of the total concentration.

rat collagen type I = molecular target: T2, rat collagen type I (Rattus norvegicus, UniProt P02454+P02466); assay: Dried collagen assay (DCA): percent binding to dried rat collagen; details: 5 μM peptide in PBS, pH 7.4, 2 hours at room temperature
T2 construct: Rat collagen (acid soluble, type I, rat tail); purchased Upstate USA, Inc 08-115; host or cells: rat tail
Procedure: Rat collagen (acid soluble, type I, rat tail, Upstate USA, Inc, cat #08-115) is dialyzed against 10 mM Phosphate (NaH2PO4), pH 4.2 with three changes of the dialysis buffer. For the final assay, a 1:10 volume of 10×PBS (100 mM NaH2PO4, 1.5 M NaCl pH 7.4) is added to the collagen solution (final 1×PBS) and incubated at 37° C. for 2 hours. The gelation is typically 90%.
as §1

[1] = molecular target: rat collagen (acid soluble, type I, rat tail, Upstate 08-115) (rat) (UniProt P02454); assay: dried collagen assay
[2] = molecular target: human collagen type I (acid soluble, extracted from placenta, Sigma C7774) (human) (UniProt P02452); assay: dried collagen assay
[3] = molecular target: T3, rat collagen (acid soluble, type I, rat tail, Upstate 08-115) (rat, UniProt P02454 152-1207; P02466 86-1125); assay: dried collagen assay
T3 construct: also called dried rat collagen; insoluble rat collagen
T3 sequence (P02454 152-1207 limits assumed, chain 1 of 2): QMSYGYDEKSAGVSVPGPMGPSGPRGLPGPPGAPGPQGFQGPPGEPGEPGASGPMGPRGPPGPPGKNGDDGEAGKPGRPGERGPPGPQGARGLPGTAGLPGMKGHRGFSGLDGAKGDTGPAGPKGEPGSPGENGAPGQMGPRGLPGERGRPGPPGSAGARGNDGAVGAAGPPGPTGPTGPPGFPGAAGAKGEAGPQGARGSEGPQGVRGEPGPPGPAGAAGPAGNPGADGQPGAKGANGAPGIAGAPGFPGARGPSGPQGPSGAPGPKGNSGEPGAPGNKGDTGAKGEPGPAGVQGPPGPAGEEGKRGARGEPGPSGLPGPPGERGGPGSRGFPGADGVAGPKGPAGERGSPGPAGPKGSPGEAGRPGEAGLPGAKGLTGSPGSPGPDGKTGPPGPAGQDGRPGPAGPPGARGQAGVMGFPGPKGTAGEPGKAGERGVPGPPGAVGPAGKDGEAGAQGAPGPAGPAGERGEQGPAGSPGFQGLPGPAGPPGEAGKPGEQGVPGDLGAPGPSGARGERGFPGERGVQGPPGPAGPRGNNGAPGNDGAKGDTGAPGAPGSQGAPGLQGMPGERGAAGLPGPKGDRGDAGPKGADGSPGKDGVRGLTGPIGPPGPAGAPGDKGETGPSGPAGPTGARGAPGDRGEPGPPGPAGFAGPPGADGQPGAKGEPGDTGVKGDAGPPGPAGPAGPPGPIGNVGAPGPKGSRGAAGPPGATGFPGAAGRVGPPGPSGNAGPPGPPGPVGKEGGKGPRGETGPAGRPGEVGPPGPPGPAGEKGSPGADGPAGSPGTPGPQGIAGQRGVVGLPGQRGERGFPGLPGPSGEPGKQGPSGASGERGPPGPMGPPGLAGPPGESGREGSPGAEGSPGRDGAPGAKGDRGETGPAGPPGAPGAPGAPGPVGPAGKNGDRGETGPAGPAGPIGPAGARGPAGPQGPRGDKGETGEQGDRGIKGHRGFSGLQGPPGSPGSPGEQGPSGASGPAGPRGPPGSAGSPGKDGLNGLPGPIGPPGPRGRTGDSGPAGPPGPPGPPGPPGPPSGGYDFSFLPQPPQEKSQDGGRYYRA
T3 sequence (P02466 86-1125 limits assumed, chain 2 of 2): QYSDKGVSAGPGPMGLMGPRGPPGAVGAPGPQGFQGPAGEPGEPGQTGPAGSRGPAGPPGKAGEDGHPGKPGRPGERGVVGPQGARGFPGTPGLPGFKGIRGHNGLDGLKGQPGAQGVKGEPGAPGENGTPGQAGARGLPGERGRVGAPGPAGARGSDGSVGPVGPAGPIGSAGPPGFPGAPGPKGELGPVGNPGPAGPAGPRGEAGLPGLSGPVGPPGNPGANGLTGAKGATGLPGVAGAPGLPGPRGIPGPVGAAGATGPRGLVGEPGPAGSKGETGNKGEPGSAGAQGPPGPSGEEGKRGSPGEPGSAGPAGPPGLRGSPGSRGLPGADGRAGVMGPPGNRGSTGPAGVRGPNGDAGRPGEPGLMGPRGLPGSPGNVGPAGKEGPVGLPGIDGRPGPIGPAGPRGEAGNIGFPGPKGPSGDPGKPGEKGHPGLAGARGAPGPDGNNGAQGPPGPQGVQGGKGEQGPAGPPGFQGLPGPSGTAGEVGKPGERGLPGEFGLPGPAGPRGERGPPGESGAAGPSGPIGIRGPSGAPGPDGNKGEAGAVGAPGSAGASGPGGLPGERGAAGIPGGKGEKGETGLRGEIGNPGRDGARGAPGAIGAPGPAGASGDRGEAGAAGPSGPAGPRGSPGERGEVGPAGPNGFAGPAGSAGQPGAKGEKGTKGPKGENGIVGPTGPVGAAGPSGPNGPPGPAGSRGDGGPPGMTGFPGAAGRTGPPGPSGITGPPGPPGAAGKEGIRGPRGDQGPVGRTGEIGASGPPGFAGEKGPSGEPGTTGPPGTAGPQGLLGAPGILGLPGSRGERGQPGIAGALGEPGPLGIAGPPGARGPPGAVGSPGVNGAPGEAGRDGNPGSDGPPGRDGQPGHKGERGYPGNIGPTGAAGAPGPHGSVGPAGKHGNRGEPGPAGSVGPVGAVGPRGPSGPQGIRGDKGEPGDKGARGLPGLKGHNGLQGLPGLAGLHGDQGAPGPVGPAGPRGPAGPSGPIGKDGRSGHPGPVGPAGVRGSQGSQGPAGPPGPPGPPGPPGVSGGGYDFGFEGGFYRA

Sequence of rat collagen (acid soluble, type I, rat tail, Upstate 08-115) (rat) (P02454 152-1207 limits assumed, chain 1 of 2): as the sequence (P02454 152-1207 limits assumed, chain 1 of 2) above
Sequence of rat collagen (acid soluble, type I, rat tail, Upstate 08-115) (rat) (P02466 86-1125 limits assumed, chain 2 of 2, further chain): as the sequence (P02466 86-1125 limits assumed, chain 2 of 2) above
T2 sequence (P02454 152-1207 limits assumed): as the sequence (P02454 152-1207 limits assumed, chain 1 of 2) above
T2 sequence (P02466 86-1125 limits assumed): as the sequence (P02466 86-1125 limits assumed, chain 2 of 2) above
Sequence of human collagen type I (acid soluble, extracted from placenta, Sigma C7774) (human) (P02452 162-1218 limits assumed, chain 1 of 2): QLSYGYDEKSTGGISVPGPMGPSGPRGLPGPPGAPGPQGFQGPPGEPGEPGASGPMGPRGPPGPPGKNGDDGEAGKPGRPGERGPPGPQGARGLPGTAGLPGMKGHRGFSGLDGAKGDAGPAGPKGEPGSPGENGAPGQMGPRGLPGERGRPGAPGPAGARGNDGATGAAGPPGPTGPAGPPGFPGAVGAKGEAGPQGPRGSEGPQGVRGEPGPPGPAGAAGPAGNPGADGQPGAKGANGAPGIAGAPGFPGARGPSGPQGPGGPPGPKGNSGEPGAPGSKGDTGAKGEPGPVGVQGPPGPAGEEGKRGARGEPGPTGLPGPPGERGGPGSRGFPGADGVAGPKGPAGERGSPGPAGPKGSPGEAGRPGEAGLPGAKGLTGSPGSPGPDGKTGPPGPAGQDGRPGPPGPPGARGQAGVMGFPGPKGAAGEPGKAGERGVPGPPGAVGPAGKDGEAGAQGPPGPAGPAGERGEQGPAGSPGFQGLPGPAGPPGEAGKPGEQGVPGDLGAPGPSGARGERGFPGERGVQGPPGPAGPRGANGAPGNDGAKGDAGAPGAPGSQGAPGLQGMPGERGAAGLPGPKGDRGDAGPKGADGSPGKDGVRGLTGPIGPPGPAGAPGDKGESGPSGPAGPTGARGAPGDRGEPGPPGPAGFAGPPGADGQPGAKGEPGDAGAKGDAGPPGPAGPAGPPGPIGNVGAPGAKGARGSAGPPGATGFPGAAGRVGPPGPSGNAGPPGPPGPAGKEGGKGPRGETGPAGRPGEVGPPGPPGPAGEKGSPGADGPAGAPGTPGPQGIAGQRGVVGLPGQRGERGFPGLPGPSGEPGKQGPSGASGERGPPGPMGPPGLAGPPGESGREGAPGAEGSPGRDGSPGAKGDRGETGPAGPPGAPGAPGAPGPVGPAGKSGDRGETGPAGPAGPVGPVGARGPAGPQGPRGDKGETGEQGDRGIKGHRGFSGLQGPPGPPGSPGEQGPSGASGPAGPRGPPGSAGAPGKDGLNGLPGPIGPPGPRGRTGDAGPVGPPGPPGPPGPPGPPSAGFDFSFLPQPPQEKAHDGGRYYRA
Sequence of human collagen type I (acid soluble, extracted from placenta, Sigma C7774) (human) (P08123 80-1119 limits assumed, chain 2 of 2, further chain): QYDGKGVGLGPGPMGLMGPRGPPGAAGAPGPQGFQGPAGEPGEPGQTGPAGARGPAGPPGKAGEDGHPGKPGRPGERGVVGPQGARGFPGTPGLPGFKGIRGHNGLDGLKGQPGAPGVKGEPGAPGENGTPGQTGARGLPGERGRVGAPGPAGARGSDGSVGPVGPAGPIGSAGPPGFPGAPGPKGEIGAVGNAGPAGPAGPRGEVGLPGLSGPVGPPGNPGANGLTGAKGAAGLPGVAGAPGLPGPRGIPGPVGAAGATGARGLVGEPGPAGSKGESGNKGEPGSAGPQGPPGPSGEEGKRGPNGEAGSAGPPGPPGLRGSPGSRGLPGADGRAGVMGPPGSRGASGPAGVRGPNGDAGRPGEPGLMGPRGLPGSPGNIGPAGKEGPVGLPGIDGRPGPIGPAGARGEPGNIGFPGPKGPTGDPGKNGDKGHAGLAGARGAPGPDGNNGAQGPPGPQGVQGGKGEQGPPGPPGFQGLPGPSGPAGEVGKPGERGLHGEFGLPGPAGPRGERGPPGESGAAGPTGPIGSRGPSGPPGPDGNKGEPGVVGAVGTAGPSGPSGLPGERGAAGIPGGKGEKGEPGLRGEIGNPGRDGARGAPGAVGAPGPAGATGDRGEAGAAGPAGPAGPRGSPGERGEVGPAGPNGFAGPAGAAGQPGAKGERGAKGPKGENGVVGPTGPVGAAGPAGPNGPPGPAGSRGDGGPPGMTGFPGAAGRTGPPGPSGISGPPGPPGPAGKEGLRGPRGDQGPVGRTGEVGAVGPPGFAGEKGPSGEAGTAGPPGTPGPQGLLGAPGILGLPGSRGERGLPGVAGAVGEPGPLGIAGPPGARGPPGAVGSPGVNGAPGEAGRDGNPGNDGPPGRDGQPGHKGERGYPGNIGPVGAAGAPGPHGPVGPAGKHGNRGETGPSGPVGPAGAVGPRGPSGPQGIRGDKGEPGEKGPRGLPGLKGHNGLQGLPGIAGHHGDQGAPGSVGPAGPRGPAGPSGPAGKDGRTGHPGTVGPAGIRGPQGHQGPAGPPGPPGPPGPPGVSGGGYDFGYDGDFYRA
T1 sequence (P02452 162-1218 limits assumed): as the sequence (P02452 162-1218 limits assumed, chain 1 of 2) above
T1 sequence (P08123 80-1119 limits assumed): as the sequence (P08123 80-1119 limits assumed, chain 2 of 2, further chain) above

Molecule | Dried Human Collagen Binding (human collagen type I) | % Collagen Binding Dried Rat (rat collagen type I) | % Collagen Binding Dried Human (human collagen type I) | also measured
65 (KWECVHTKGEWYCETK) [compound 65] | 7% |  |  | 
2 (WGWCEWAQNNCWNY) [compound 2] | 14% |  |  | 
3 (PWWCHEMPSMCFGF) [compound 3] | 2% |  |  | 
38 (GWSCHGDAADWPCQWS) [compound 38] | 6% |  |  | 
39 (GWQCSGDASVWNCDWI) [compound 39] | 6% |  |  | 
36 (SWSCGGDHNAWKCQYS) [compound 36] | 7% |  |  | 
37 (LWNCHGTDANWKCVLN) [compound 37] | 7% |  |  | 
GQWHCTTRFPHHXCLYG (not fully specified; Gd^T-GQWHCTTRFPHH-bip-CLYG) [Comp ID 903] |  |  |  | % bound [1]: 5%; % bound [2]: 3%
GQWHCTTDFPHHYCLYG (not fully specified; Gd^T-GQWHCTTD-F(4-NH2)(Gd^T)-PHHYCLYG) [Comp ID 885] |  |  |  | % bound [3]: 9%
GQWHCTDRFPHHYCLYG (not fully specified; Gd^T-GQWHCTDRFPHHYCLYG) [Comp ID 936] |  |  |  | % bound [3]: 5%
GQWHCTTRFPHHFCLYG (not fully specified; Gd^T-GQWHCTTRFPHHfCLYG) [Comp ID 901] |  |  |  | % bound [1]: 2%; % bound [2]: 2%
GQWHCTTLFPHHYCLYG (not fully specified; Gd^T-GQWHCTTLFPHHyCLYG) [Comp ID 907] |  |  |  | % bound [1]: 1%; % bound [2]: 6%

Further lines, with some results ahead:

Dried Human Collagen Binding (human collagen type I) | % Collagen Binding Dried Rat (rat collagen type I) | % Collagen Binding Dried Human (human collagen type I) | Molecule | also measured
 | 3% | 2% | 166 (QW[dT]CSGDEYTWHCNYE; disulfide 4-13 (inferred)) [compound 166] | 
3% |  |  | 113 (FSECVWVNAYQCEYF; disulfide 4-12 (inferred)) [compound 113] | 
 | 4% |  | 169 (QWTCSG[dD]EYTWHCNYE; disulfide 4-13 (inferred)) [compound 169] | 
32% |  |  | 130 (WWACQKGRHDWEKCRWL; disulfide 4-14 (inferred)) [compound 130] | 
 |  | 5% | 174 (QWTCSGDEYTW[dH]CNYE; disulfide 4-13 (inferred)) [compound 174] | 
9% |  |  | 112 (AKACSVHDEFGCLIS; disulfide 4-12 (inferred)) [compound 112] | 
 | 4% | 5% | 173 (QWTCSGDEYT[dW]HCNYE; disulfide 4-13 (inferred)) [compound 173] | 
 | 7% |  | 137 (YHACYQAGCWAW; disulfide 4-9 (inferred)) [compound 137] | 
 | 2% | 3% | 168 (QWTC[dS]GDEYTWHCNYE; disulfide 4-13 (inferred)) [compound 168] | 
 |  | 7% | 159 (YHACYQAG[dC]WIW; disulfide 4-9 (inferred)) [compound 159] | 
 | 53% |  | 163 ([dY][dH][dA][dC][dY][dQ][dA]G[dC][dW][dI][dW]; disulfide 4-9 (inferred)) [compound 163] | 
 | 2% | 2% | 175 (QWTCSGDEYTWH[dC]NYE; disulfide 4-13 (inferred)) [compound 175] | 
 | 2% | 2% | 176 (QWTCSGDEYTWHC[dN]YE; disulfide 4-13 (inferred)) [compound 176] | 
 | 4% | 2% | 165 (Q[dW]TCSGDEYTWHCNYE; disulfide 4-13 (inferred)) [compound 165] | 
 | 6% |  | 142 (QWTCSADEYTWHCNYE; disulfide 4-13 (inferred)) [compound 142] | 
 |  | 5% | 147 (QWTCSGDEYTAHCNYE; disulfide 4-13 (inferred)) [compound 147] | 
 |  | 4% | 167 (QWT[dC]SGDEYTWHCNYE; disulfide 4-13 (inferred)) [compound 167] | 
 | 6% |  | 171 (QWTCSGDE[dY]TWHCNYE; disulfide 4-13 (inferred)) [compound 171] | 

From US20070293656A1, “COLLAGEN BINDING PEPTIDES” (Epix Pharmaceuticals, Inc., priority 2005, published 2007)
